According to PMC6202052:
pKd: −log10 of the molar value. Values belong to the substance of their own block, whether it stands above or below them.

Key:
[1] = biological target: biotinylated human N1 ectodomain fragment containing EGF repeats 6–15 (human) (UniProt P46531); assay: BLI; BLItz instrument; biotinylated Notch1 fragment loaded on streptavidin biosensors, dipped into ligand samples of varying concentration until equilibrium; HBS-P buffer with 0.005% surfactant P20 and 5 mM CaCl2; equilibrium curves fitted with a one site specific binding model
[2] = biological target: Notch1 expressed in N1rep ES cells (UniProt Q01705)
[3] = biological target: Notch1 expressed in N1rep ES cells (UniProt Q01705); remark: listed apart in the source
[4] = biological target: Notch2 expressed in N2rep ES cells (UniProt O35516)

Notch1 expressed in N1rep ES cells, sequence (Q01705 19-2531): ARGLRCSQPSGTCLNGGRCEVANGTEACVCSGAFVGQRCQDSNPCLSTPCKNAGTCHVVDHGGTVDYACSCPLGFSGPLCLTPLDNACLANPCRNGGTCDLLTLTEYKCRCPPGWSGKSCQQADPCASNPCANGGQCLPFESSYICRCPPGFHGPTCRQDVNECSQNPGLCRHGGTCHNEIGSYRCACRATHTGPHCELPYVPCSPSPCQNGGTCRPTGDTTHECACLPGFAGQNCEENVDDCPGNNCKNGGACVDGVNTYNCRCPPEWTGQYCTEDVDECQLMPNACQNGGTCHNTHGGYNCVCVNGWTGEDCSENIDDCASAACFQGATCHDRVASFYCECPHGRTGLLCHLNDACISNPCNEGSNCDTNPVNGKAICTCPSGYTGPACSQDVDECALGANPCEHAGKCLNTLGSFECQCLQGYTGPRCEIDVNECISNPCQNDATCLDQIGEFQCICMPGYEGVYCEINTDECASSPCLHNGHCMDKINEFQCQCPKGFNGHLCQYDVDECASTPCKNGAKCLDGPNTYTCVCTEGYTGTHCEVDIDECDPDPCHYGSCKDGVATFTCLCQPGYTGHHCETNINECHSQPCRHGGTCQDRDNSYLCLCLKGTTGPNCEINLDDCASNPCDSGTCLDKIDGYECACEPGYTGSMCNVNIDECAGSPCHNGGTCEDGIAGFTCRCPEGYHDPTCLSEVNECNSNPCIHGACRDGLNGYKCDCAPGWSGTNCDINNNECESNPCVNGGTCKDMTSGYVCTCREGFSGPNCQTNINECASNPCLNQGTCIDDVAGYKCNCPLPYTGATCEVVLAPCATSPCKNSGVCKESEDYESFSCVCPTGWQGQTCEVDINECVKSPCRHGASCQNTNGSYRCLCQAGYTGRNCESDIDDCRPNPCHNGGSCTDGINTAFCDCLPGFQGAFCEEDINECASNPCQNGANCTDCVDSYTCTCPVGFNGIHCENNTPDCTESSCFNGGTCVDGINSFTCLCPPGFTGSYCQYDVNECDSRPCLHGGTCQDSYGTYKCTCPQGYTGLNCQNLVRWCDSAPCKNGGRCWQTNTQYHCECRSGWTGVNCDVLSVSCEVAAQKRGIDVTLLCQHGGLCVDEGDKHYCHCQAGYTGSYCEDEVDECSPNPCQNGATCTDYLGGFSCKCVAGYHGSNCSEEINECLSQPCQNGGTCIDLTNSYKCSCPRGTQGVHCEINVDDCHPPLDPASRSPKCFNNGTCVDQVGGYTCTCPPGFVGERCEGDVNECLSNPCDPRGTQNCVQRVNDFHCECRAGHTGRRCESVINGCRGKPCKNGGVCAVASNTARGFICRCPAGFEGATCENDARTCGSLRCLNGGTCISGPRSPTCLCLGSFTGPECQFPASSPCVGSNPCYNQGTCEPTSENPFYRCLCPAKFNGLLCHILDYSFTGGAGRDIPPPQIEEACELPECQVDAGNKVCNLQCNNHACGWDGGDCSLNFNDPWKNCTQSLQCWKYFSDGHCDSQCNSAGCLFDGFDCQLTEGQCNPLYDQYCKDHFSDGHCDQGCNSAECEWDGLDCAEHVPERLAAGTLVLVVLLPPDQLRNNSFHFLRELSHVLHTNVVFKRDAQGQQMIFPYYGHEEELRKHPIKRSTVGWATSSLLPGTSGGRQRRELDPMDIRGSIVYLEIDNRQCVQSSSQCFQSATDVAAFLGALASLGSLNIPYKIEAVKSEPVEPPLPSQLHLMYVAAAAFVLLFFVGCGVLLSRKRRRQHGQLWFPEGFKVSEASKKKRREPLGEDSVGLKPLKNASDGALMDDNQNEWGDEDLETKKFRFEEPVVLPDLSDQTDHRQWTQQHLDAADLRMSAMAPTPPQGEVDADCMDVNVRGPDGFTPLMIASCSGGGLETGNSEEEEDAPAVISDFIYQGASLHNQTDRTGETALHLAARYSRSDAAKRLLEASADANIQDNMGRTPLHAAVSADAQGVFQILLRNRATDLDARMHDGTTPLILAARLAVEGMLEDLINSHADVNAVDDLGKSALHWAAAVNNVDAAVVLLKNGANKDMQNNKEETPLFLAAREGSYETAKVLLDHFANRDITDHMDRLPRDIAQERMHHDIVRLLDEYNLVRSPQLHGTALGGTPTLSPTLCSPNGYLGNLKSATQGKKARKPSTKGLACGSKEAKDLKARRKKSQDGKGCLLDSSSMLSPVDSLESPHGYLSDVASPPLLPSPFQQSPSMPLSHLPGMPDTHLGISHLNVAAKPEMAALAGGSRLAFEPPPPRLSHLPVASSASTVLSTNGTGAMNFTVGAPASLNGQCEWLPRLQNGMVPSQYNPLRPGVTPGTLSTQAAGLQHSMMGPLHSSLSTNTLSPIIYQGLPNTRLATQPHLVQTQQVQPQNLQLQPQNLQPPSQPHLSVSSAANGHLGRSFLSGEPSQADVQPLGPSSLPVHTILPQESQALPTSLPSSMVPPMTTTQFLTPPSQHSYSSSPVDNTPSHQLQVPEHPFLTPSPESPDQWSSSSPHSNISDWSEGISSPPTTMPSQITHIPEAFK
biotinylated human N1 ectodomain fragment containing EGF repeats 6–15 (human), sequence (P46531 216-604): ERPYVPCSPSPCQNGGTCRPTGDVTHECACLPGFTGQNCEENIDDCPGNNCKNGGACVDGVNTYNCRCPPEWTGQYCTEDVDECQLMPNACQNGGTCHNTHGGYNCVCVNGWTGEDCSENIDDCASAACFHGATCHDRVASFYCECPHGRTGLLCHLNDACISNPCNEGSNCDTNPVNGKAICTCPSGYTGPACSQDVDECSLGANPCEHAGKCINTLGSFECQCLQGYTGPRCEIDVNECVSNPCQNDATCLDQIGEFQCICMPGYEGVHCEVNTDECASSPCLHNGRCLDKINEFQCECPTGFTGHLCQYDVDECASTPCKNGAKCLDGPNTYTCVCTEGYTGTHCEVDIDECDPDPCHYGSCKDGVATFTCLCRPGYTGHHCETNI
mDLL4 (mouse DLL4, full length, expressed on ES cells), sequence (Q9JI71 27-686): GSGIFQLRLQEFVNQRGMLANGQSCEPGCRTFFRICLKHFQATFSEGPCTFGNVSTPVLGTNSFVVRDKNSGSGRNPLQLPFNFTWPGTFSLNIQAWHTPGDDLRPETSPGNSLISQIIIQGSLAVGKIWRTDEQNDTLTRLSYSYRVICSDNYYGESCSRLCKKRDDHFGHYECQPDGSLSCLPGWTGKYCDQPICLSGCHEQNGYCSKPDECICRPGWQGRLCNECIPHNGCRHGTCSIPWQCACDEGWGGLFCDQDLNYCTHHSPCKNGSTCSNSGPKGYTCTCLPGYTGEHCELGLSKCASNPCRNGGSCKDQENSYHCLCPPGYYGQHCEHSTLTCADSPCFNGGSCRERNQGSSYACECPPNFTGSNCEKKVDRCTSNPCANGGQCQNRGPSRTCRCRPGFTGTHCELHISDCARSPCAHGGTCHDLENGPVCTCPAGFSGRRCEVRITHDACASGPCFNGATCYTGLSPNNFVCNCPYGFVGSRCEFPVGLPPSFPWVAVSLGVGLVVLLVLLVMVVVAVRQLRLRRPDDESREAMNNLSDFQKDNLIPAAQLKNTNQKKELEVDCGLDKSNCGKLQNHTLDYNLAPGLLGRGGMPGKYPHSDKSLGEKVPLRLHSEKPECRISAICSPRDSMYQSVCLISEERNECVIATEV
mDLL1 (mouse DLL1, full length, expressed on ES cells), sequence (Q61483 18-722): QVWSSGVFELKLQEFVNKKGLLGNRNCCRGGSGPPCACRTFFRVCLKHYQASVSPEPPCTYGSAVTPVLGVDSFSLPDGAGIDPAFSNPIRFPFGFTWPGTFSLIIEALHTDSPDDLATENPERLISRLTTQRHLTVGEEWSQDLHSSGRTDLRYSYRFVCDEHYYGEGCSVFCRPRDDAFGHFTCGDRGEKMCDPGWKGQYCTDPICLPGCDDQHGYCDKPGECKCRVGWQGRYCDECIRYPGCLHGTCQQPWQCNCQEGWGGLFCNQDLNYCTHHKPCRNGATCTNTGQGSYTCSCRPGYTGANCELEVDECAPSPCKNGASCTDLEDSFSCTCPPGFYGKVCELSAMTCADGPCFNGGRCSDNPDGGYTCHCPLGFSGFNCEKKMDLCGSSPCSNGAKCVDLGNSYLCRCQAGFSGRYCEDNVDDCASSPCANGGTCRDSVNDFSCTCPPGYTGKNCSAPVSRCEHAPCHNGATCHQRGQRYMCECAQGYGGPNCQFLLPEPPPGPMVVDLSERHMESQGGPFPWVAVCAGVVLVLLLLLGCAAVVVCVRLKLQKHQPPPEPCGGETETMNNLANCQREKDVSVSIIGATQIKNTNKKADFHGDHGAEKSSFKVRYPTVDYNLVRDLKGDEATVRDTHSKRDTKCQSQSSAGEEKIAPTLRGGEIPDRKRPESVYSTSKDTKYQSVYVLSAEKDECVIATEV

pKd [1]: 6.49
Substance: D1contD4 (DLL1 N-terminus through EGF5 with the N1 contact amino acids of the MNNL and DSL domains replaced by those of DLL4) (domain or fragment)

pKd [1]: 6.47
Substance: D4^N109G (DLL4 N-terminus through EGF5 with the N109G mutation) (from UniProt Q9JI71 27-686) (domain or fragment)

pKd [1]: 6.49
Substance: D4contD1 (DLL4 N-terminus through EGF5 with the N1 contact amino acids of the MNNL and DSL domains replaced by those of DLL1) (domain or fragment)

luciferase Notch reporter in N1rep ES cells co-cultured with DLL1-expressing ES cells, against the basal signal with E14 ES cells [2]: 10 fold
Substance: mDLL1 (mouse DLL1, full length, expressed on ES cells) (from UniProt Q61483 18-722) (ligand)

luciferase Notch reporter in N1rep ES cells co-cultured with ligand-expressing ES cells; activation by DLL4 as fold of activation by DLL1, non-normalized [3]: 12.5 fold of DLL1
luciferase Notch reporter in N1rep ES cells co-cultured with ligand-expressing ES cells; activation by DLL4 normalized to DLL1 activation and corrected for protein expression and cell surface levels [3]: 9.42 fold of DLL1
luciferase Notch reporter in N2rep ES cells co-cultured with ligand-expressing ES cells; activation by DLL4 as fold of activation by DLL1, non-normalized [4]: 0.468 fold of DLL1
luciferase Notch reporter in N2rep ES cells co-cultured with ligand-expressing ES cells; activation by DLL4 normalized to DLL1 activation and corrected for protein expression and cell surface levels [4]: 0.35 fold of DLL1
Substance: mDLL4 (mouse DLL4, full length, expressed on ES cells) (from UniProt Q9JI71 27-686) (ligand)
